Some results are limits rather than exact numbers.

The target of test [1] is human ENPP3 on cells (human) (UniProt O14638). Briefly: flow cytometry receptor quantification on 786-O cells. Background: In flow cytometry, cells or beads pass a laser one at a time.
Test [2] shares this target. Kind of test: flow cytometry receptor quantification on HUH-7 cells.
Test [3] has the same target. Briefly: flow cytometry receptor quantification on KMRC20 cells.
Test [4] has the same target. Kind of test: flow cytometry receptor quantification on ACHN cells.
For test [5] the target is unchanged. Kind of test: flow cytometry receptor quantification on TUHR4TKB cells (Table 18 of the text prints this value under a second TUHR10TKB row).
For test [6] the target is unchanged. Briefly: flow cytometry receptor quantification on CHO-K1 ENPP3-OE cells; bar above the ULOD line.
Test [7] has the same target. Kind of test: flow cytometry receptor quantification on Hep3B cells.

Chain of human ENPP3 on cells (human) (O14638 whole entry): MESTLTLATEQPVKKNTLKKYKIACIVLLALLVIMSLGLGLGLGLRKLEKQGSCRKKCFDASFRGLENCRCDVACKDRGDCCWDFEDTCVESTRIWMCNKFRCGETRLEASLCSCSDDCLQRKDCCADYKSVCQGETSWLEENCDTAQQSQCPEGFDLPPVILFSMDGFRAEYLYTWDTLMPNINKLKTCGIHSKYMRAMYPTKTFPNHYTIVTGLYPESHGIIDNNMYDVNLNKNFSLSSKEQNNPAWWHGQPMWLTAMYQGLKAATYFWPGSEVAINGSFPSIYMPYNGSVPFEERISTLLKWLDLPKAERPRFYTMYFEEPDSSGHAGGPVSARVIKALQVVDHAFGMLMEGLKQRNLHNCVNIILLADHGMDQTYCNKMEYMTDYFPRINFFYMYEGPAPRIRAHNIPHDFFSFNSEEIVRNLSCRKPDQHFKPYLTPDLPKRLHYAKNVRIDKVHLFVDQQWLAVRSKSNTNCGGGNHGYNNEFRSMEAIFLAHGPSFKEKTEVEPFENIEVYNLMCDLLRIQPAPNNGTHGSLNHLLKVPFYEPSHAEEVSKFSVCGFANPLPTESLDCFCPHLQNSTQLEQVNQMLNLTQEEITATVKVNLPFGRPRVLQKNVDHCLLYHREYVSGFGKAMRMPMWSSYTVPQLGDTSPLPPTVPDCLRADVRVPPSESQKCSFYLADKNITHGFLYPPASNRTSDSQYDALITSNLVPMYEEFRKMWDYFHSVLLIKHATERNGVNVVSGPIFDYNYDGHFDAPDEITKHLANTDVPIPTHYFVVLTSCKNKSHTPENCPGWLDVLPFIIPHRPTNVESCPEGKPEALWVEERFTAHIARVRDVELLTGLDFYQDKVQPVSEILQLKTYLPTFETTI

For the substance commercial ENPP3 antibody clone NP4D6, the ENPP3 Receptor Density - Antibody Binding capacity (ABC) was 4000 ABC in test [1]; 7000 ABC in test [2]; 21000 ABC in test [3]; 5000 ABC in test [4]; 61000 ABC in test [5]; over 470000 ABC in test [6]. Also, the ENPP3 Receptor Density - Antibody Binding capacity (ABC) in test [7] was determined as 13000 ABC.

The values above are taken from US20250163182A1.
